Results taken from patent US20110171215A1 (ISIS INNOVATION, published 2011).

B1: Clone 19 anti-PD-1 antibody (antibody, IgG1, V domains shown)
VH: QVQLQQSGAELVKPGASVKMSCKAFGYTFTTYPIEWMKQNHGKSLEWIGNFHPYNDDTKYNEKFKGKAKLTVEKSSTTVYLELSRLTSDDSAVYYCARENYGSHGGFVYWGQGTLVTV
VL: ENVLTQSPAIMSASPGEKVTMTCRASSSVISSYLHWYQQKSGASPKLWIYSTSNLASGVPDRFSGSGSGTSYSLTISSVEAEDAATYYCQQYNGYPLTFGAGTKLEIK
notes: The printed VH ends at ...TV
B2: Clone 2 anti-PD-1 antibody (antibody, V domains shown)
VH: QVQLQQPGAELVKPGASVKLSCKASGYTFTTYYLYWVRQRPGQGLEWIGGINPSNGGTNFNEKFKSKATLTVDKSSSTAYMQLNSLTSEDSAVYYCTRRDYRYDRGFDYWGQGTSVTV
VL: DIVLTQSPASLAVSLGQRATISCRASKSVSTSGFNYIHWYQQKPGQPPKLLIYLASNLESGVPARFSGSGSGTDFTLNIHPVEDEDAATYYCQHSRELPLTFGAGTKLEIK
notes: The printed VH ends at ...TV

Assays:
[1] = target: T1, human PD-1 extracellular region / murine CD28 chimera, mutant L16R, on HEK-293T cells (human; mouse, UniProt Q15116 25-170; P31041 151-218, L16R); assay: flow cytometry on transfected HEK-293T cells
T1 construct: extracellular domain;domain: transmembrane and intracellular regions; Single-residue 'drastic' mutant of m4; constructs elsewhere are counted on the mature polypeptide
Protocol: (§1) Constructs encoding the human extracellular region of PD-1 with the transmembrane and intracellular regions of murine CD28 were cloned into the bi-cistronic mammalian expression vector pGFP2-n2 from BioSignal Packard Ltd, which also encodes GFP. Mutant constructs varying by one amino acid were prepared using the “drastic” mutagenesis approach (Davis el al. Proc Natl Acad Sci USA. 95, 5490-4 (1998)). Plasmids (2 μg/well) were transfected into HEK-293T cells in 6 well plates using Genejuice transfection reagent (Novagen; 6 μl/well). Mock and no-transfection controls were included with each experiment. Cells were harvested at 18-24 hours and stained with anti-PD1 antibodies or isotype controls at 10 μg/ml in PBS-azide for 1 h at 4° C. Cells were washed with PBS-Azide, pelleted at 1500 rpm/5 min and primary antibodies were labelled with Alexa647-conjugated donkey anti-mouse IgG (5 μg/ml) in PBS-Azide for 30 min at 4° C. Cells were washed as above and resuspended in 200 μl PBS-Azide before being analysed at the flow cytometer. Propidium iodide (5 μg/ml) was added immediately prior to analysis to identify dead cells. GFP-positive (transfected) viable cells were gated and analysed for binding of anti-PD1 antibodies. […]

[2] = target: T2, human PD-1 extracellular region / murine CD28 chimera, mutant R118D, on HEK-293T cells (human; mouse, UniProt Q15116 25-170; P31041 151-218, R118D); assay: flow cytometry on transfected HEK-293T cells
T2 construct: extracellular domain;domain: transmembrane and intracellular regions; Single-residue 'drastic' mutant of m4
Protocol: as §1

[3] = target: T3, human PD-1 extracellular region with the transmembrane and intracellular regions of murine CD28, expressed on … (human; mouse, UniProt Q15116 25-170; P31041 151-218, limits assumed); assay: flow cytometry on transfected HEK 293T cells
T3 construct: extracellular domain;domain: transmembrane and intracellular regions; also called human PD-1 transfectants
Protocol: as §1

T3 sequence (Q15116 other isoform, or with tags, fused parts or gaps limits assumed, change not shown): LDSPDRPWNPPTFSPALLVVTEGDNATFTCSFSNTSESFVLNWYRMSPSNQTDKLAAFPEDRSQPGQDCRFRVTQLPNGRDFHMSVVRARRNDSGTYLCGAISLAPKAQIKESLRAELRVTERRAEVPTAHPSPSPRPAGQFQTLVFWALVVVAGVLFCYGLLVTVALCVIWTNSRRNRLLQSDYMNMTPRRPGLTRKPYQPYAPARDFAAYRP
T2 sequence (Q15116 other isoform, or with tags, fused parts or gaps R118D | R118D R118D): as the sequence (Q15116 other isoform, or with tags, fused parts or gaps limits assumed, change not shown) above, with R119D counted along it
T1 sequence (Q15116 other isoform, or with tags, fused parts or gaps L16R | L16R L16R): as the sequence (Q15116 other isoform, or with tags, fused parts or gaps limits assumed, change not shown) above, with L17R counted along it

Row | Binder | binding result [1] | binding result [2] | binding result [3]
1 | B1 | no binding (tested: 10 µg/ml) | no binding (tested: 10 µg/ml) | –
2 | B2 | – | – | binds
